Assay results as given in patent publication US20220162293A1 (UNIVERSITY OF BRITISH COLUMBIA, published 2022).
Residue numbers refer to the chain shown, from its start.

Tests used:
BSA = target: T1, BSA (bovine, UniProt P02769 25-607); experiment: screen of hybridoma supernatants
T1 construct: Carrier protein used as negative screening antigen; also called bovine serum albumin

Linear … (SEQ ID NO: 2) = target: T2, Linear … (SEQ ID NO: 2); experiment: indirect ELISA, peptide coated 0.1 µg/well, neat hybridoma supernatant
T2 sequence (peptide): CGGTTEQGG

[1] = target: T3, cyclo(CGGTTEQGG) (SEQ ID NO: 2) (cyclic peptide: head to tail cyclization (amide condensation of the linear peptide)); experiment: as above
T3 construct: Coated on ELISA plates
T3 peptide: CGGTTEQGG
Experimental: (§1) ELISA plates were coated with 0.1 μg/well with peptide cyclo([…]) (SEQ ID NO: 2) or cyclo(CGTTEQG) (SEQ ID NO: 3) or the linear versions thereof at 100 μL/well in carbonate Coating Buffer (pH 9.6) overnight at 4 C. In other assays, cyclo([…]) (SEQ ID NO: 32) or cyclo (CGTTEGG) (SEQ ID NO: 29) were also used to coat the ELISA plates.
(§2) The plates were blocked with 3% skim milk powder in PBS for 1 hour at room temperature. The primary antibody, hybridoma tissue culture supernatant neat at 100 uL/well, was incubated for 1 hour at 37 C with shaking. The secondary antibody, goat anti-mouse IgGy-HRP at a 1:10,000 dilution was added at 100 uL/well in PBS-Tween and incubated for 1 hour at 37 C with shaking. All washing steps were performed for 30 mins with PBS-Tween. TMB Substrate was added at 50 uL/well, developed in the dark and stopped with equal volume 1M HCl. The development time was 1-2 min and the plate was read at 450 nm.

[2] = target: T4, TDP-43 in human spinal cord homogenates of sporadic ALS patients (human, UniProt Q13148 1-414, limits assumed); experiment: dot blot of spinal cord homogenates on PVDF
T4 construct: Tissue homogenate dotted on PVDF; also called sALS samples; pathogenic TDP43 in spinal cord homogenates from ALS patients

[3] = target: T5, Linear CGGTTEQGG (SEQ ID NO: 2); experiment: indirect ELISA, peptide coated 0.1 µg/well, neat hybridoma supernatant
T5 construct: Coated on ELISA plates; also called linear peptide
T5 peptide: CGGTTEQGG
Experimental: as §1, §2

T1 sequence (P02769 25-607 limits assumed): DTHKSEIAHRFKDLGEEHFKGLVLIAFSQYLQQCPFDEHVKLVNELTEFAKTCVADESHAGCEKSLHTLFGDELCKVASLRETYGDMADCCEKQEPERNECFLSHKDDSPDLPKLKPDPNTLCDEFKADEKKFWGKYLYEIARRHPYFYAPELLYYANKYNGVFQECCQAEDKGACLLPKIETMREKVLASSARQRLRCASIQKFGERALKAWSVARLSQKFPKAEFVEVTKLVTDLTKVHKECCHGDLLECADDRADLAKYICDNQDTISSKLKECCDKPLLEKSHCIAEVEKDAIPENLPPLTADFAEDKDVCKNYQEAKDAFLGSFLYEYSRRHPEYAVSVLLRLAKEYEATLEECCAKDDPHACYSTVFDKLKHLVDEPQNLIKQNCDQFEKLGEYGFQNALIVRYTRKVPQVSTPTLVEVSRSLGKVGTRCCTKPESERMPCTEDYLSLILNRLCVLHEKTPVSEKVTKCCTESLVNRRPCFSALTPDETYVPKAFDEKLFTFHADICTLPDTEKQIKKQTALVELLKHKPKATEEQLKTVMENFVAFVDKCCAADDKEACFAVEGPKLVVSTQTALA
T4 sequence (Q13148 whole entry): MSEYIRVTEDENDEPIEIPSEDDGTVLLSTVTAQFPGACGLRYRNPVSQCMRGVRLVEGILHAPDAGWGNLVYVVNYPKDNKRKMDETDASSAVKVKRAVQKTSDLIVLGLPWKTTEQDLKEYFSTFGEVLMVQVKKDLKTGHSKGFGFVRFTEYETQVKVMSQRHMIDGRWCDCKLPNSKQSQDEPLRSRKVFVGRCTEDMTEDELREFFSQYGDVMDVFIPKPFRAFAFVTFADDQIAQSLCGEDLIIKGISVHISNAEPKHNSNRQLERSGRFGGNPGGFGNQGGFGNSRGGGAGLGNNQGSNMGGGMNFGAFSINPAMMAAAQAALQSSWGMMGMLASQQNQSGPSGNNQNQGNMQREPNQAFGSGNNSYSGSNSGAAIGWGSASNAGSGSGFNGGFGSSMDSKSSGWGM

B1: 9C5 (antibody, V domains shown)
VH: EVQLVESGGGLVKPGGSLKLSCAASGFTFSDYYMYWVRQTPEKRLEWVATISDGGSYTSYPDSVKGRFTISRDNAKNNLYLQMSSLRSEDTAMYYCARDYYGSSSYTSGFAYWGQGTLVTVSA
VL: DVLMTQTPLSLPVSLGDQASISCRSSQSIVHSNGNTYLEWYLQKPGQSPKLLIYKVSNRFSGVPDRFSGSGSGTDFTLKISRVEAEDLGVYYCFQGSHVPGTFGGGTKLEIK
notes: IgG3, kappa; also called clone 9C5; antibody 6
- binding result (BSA): no binding
- ELISA signal (read at 450 nm) (absorbance at 450 nm) (Linear … (SEQ ID NO: 2)): 0.115
- ELISA signal (read at 450 nm) [1]: 2.29 absorbance at 450 nm

B2: 11F3 (antibody, V domains shown)
VH: QIQLVQSGPELKKPGETVKISCKASGYTFTDYSMHWVKHSPGKGLKWMGWINTETGEPTYADDFKGRFAFSLETSASTAYLQINNLKNEDTATYFCARGYGNWFAYWGQGTLVTVSA
VL: QIVLTQSPAIMSASLGERVTMTCTASSSVSSSYLHWYQQKPGSSPKLWIYSTSNLASGVPARFSGSGSGTSYSLTISSMEAEDAATYYCHQYHRSPLTFGAGTKLELK
notes: IgG1, kappa; also called clone 11F3; antibody 3
- binding result (BSA): no binding
- ELISA signal (read at 450 nm) (absorbance at 450 nm) (Linear … (SEQ ID NO: 2)): 0.071
- ELISA signal (read at 450 nm) [1]: 1.1 absorbance at 450 nm

B3: 3H5 (antibody, V domains shown)
VH: QIQLVQSGPELKKPGETVKISCKASGYTFTDYSMHWVKQAPGKGLKWMGWINTETGEPTYADDFKGRFAFSLETSASTAYLQINNLKNEDTATYFCASRRWYPYYFDYWGQGTTLTVSS
VL: QAVVTQESALTTSPGETVTLTCRSSTGAVTTSNYANWVQEKPDHLFTGLIGGPNNRAPGVPARFSGSLIGDKAALTITGAQTEDEAIYFCALWYSNHWVFGGGTKLTVL
notes: IgG1, lambda; also called clone 3H5; antibody 4
- binding result (BSA): no binding
- ELISA signal (read at 450 nm) (absorbance at 450 nm) (Linear … (SEQ ID NO: 2)): 0.068
- ELISA signal (read at 450 nm) [1]: 2.83 absorbance at 450 nm

B4: 6C5 (antibody, V domains shown)
VH: EVKLVESGGGLVQPGGSLKLSCATSGFTFSDYYMYWVRQTPEKRLEWVAYISNGGGSTYYPDTVKGRFTISRDNAKNTLYLQMSRLKSEDTAMYYCAREGGTAWFAYWGQGTLVTVSA
VL: B1 VL with G101Y
notes: IgG1, kappa; also called Antibody 6C5
- binding result (BSA): no binding
- binding result [2]: binds
- ELISA signal (read at 450 nm) [1]: 1.1 absorbance at 450 nm
- ELISA signal (read at 450 nm) [3]: 0.191 absorbance at 450 nm
